Reference: paper PMC6283856 (2018)

B1: ubiquitin-specific peptidase 17 (USP17), wild type [not stated] / TNFR-associated factor 2 (TRAF2) [not stated] (parent complex)
chain 1: MEDDSLYLGGEWQFNHFSKLTSSRPDAAFAEIQRTSLPEKSPLSSEARVDLCDDLAPVARQLAPRKKLPLSSRRPAAVGAGLQNMGNTCYENASLQCLTYTPPLANYMLSREHSQTCQRPKCCMLCTMQAHITWALHSPGHVIQPSQALAAGFHRGKQEDAHEFLMFTVDAMKKACLPGHKQVDHHSKDTTLIHQIFGGCWRSQIKCLHCHGISDTFDPYLDIALDIQAAQSVKQALEQLVKPEELNGENAYHCGLCLQRAPASKTLTLHTSAKVLILVLKRFSDVTGNKLAKNVQYPECLDMQPYMSQQNTGPLVYVLYAVLVHAGWSCHDGHYFSYVKAQEGQWYKMDDAKVTACSITSVLSQQAYVLFYIQKSEWERHSESVSRGREPRALGAEDTDRRATQGELKRDHPCLQAPELDERLVERATQESTLDHWKFPQEQNKTKPEFNVRKVEGTLPPNVLVIHQSKYKCGMKNHHPEQQSSLLNLSSTTRTDQESVNTGTLASLQGRTRRSKGKNKHSKRALLVCQ
chain 2: MAAASVTPPGSLELLQPGFSKTLLGTKLEAKYLCSACRNVLRRPFQAQCGHRYCSFCLASILSSGPQNCAACVHEGIYEEGISILESSSAFPDNAARREVESLPAVCPSDGCTWKGTLKEYESCHEGRCPLMLTECPACKGLVRLGEKERHLEHECPERSLSCRHCRAPCCGADVKAHHEVCPKFPLTCDGCGKKKIPREKFQDHVKTCGKCRVPCRFHAIGCLETVEGEKQQEHEVQWLREHLAMLLSSVLEAKPLLGDQSHAGSELLQRCESLEKKTATFENIVCVLNREVERVAMTAEACSRQHRLDQDKIEALSSKVQQLERSIGLKDLAMADLEQKVLEMEASTYDGVFIWKISDFARKRQEAVAGRIPAIFSPAFYTSRYGYKMCLRIYLNGDGTGRGTHLSLFFVVMKGPNDALLRWPFNQKVTLMLLDQNNREHVIDAFRPDVTSSSFQRPVNDMNIASGCPLFCPVSKMEAKNSYVRDDAIFIKAIVDLTGL
B2: ubiquitin-specific peptidase 17 (USP17), wild type [not stated] / TNFR-associated factor 3 (TRAF3) [not stated] (parent complex)
chain 1: B1 chain 1
chain 2: MESSKKMDSPGALQTNPPLKLHTDRSAGTPVFVPEQGGYKEKFVKTVEDKYKCEKCHLVLCSPKQTECGHRFCESCMAALLSSSSPKCTACQESIVKDKVFKDNCCKREILALQIYCRNESRGCAEQLMLGHLLVHLKNDCHFEELPCVRPDCKEKVLRKDLRDHVEKACKYREATCSHCKSQVPMIALQKHEDTDCPCVVVSCPHKCSVQTLLRSELSAHLSECVNAPSTCSFKRYGCVFQGTNQQIKAHEASSAVQHVNLLKEWSNSLEKKVSLLQNESVEKNKSIQSLHNQICSFEIEIERQKEMLRNNESKILHLQRVIDSQAEKLKELDKEIRPFRQNWEEADSMKSSVESLQNRVTELESVDKSAGQVARNTGLLESQLSRHDQMLSVHDIRLADMDLRFQVLETASYNGVLIWKIRDYKRRKQEAVMGKTLSLYSQPFYTGYFGYKMCARVYLNGDGMGKGTHLSLFFVIMRGEYDALLPWPFKQKVTLMLMDQGSSRRHLGDAFKPDPNSSSFKKPTGEMNIASGCPVFVAQTVLENGTYIKDDTIFIKVIVDTSDLPDP

Variants of: B1
Test: co-immunoprecipitation (IP: Myc, IB: Flag) with band quantification; coexpressed in HEK293 cells; parent: 100; read off a plot

| Variant | percent of parent [%] |
| --- | --- |
| chain 1 MEDDSLYLGGEWQFNHFSKLTSSRPDAAFAEIQRTSLPEKSPLSSEARVDLCDDLAPVARQLAPRKKLPLSSRRPAAVGAGLQNMGNTCYENASLQCLTYTPPLANYMLSREHSQTCQRPKCCMLCTMQAHITWALHSPGHVIQPSQALAAGFHRGKQEDAHEFLMFTVDAMKKACLPGHKQVDHHSKDTTLIHQIFGGCWRSQIKCLHCHGISDTFDPYLDIALDIQAAQSVKQALEQLVKPEELNGENAYHCGLCLQRAPASKTLTLHTSAKVLILVLKRFSDVTGNKLAKNVQYPECLDMQPYMSQQNTGPLVYVLYAVLVHAGWSCHDGHYFSYVKAQEGQWYKMDDAKVTACSITSVLSQQAYVLFYIQKSEWERHSESVSRGREPRALGAEDTDRRATQGELKRDHPCLQAPELDERLVERATQESTLDHWKFPQEQNKTKPEFNVRKVEGTLPPNVLVIHQSKYKCGMKNHHPEQQLSLLNLSSTTRTDQESVNTGTLASLQGRTRRSKGKNKHSKRALLVCQ [chain 1 S484L] | ~40 |
| chain 1 MEDDSLYLGGEWQFNHFSKLTSSRPDAAFAEIQRTSLPEKSPLSSEARVDLCDDLAPVARQLAPRKKLPLSSRRPAAVGAGLQNMGNTCYENASLQCLTYTPPLANYMLSREHSQTCQRPKCCMLCTMQAHITWALHSPGHVIQPSQALAAGFHRGKQEDAHEFLMFTVDAMKKACLPGHKQVDHHSKDTTLIHQIFGGCWRSQIKCLHCHGISDTFDPYLDIALDIQAAQSVKQALEQLVKPEELNGENAYHCGLCLQRAPASKTLTLHTSAKVLILVLKRFSDVTGNKLAKNVQYPECLDMQPYMSQQNTGPLVYVLYAVLVHAGWSCHDGHYFSYVKAQEGQWYKMDDAKVTACSITSVLSQQAYVLFYIQKSEWERHSESVSRGREPRALGAEDTDRRATQGELKRDHPCLQAPELDERLVERATQESTLDHWKFPQEQNKTKPEFNVRKVEGTLPPNVLVIHQSKYKCGMKNHHLEQQSSLLNLSSTTRTDQESVNTGTLASLQGRTRRSKGKNKHSKRALLVCQ [chain 1 P480L] | ~68 |
| chain 1 MEDDSLYLGGEWQFNHFSKLTSSRPDAAFAEIQRTSLPEKSPLSSEARVDLCDDLAPVARQLAPRKKLPLSSRRPAAVGAGLQNMGNTCYENASLQCLTYTPPLANYMLSREHSQTCQRPKCCMLCTMQAHITWALHSPGHVIQPSQALAAGFHRGKQEDAHEFLMFTVDAMKKACLPGHKQVDHHSKDTTLIHQIFGGCWRSQIKCLHCHGISDTFDPYLDIALDIQAAQSVKQALEQLVKPEELNGENAYHCGLCLQRAPASKTLTLHTSAKVLILVLKRFSDVTGNKLAKNVQYPECLDMQPYMSQQNTGPLVYVLYAVLVHAGWSCHDGHYFSYVKAQEGQWYKMDDAKVTACSITSVLSQQAYVLFYIQKSEWERHSESVSRGREPRALGAEDTDRRATQGELKRDHPCLQAPELDERLVERATQESTLDHWKFPQEQNKTKPEFNVRKVEGTLPPNVLVIHQSKYKCGMKNHHPERQSSLLNLSSTTRTDQESVNTGTLASLQGRTRRSKGKNKHSKRALLVCQ [chain 1 Q482R] | ~37 |
| chain 1 MEDDSLYLGGEWQFNHFSKLTSSRPDAAFAEIQRTSLPEKSPLSSEARVDLCDDLAPVARQLAPRKKLPLSSRRPAAVGAGLQNMGNTCYENASLQCLTYTPPLANYMLSREHSQTCQRPKCCMLCTMQAHITWALHSPGHVIQPSQALAAGFHRGKQEDAHEFLMFTVDAMKKACLPGHKQVDHHSKDTTLIHQIFGGCWRSQIKCLHCHGISDTFDPYLDIALDIQAAQSVKQALEQLVKPEELNGENAYHCGLCLQRAPASKTLTLHTSAKVLILVLKRFSDVTGNKLAKNVQYPECLDMQPYMSQQNTGPLVYVLYAVLVHAGWSCHDGHYFSYVKAQEGQWYKMDDAKVTACSITSVLSQQAYVLFYIQKSEWERHSESVSRGREPRALGAEDTDRRATQGELKRDHPCLQAPELDERLVERATAESTLDHWKFPQEQNKTKPEFNVRKVEGTLPPNVLVIHQSKYKCGMKNHHPEQQSSLLNLSSTTRTDQESVNTGTLASLQGRTRRSKGKNKHSKRALLVCQ [chain 1 Q430A] | ~33 |

The remaining lines, values ahead:

| percent of parent [%] | Variant |
| --- | --- |
| ~29 | chain 1 MEDDSLYLGGEWQFNHFSKLTSSRPDAAFAEIQRTSLPEKSPLSSEARVDLCDDLAPVARQLAPRKKLPLSSRRPAAVGAGLQNMGNTCYENASLQCLTYTPPLANYMLSREHSQTCQRPKCCMLCTMQAHITWALHSPGHVIQPSQALAAGFHRGKQEDAHEFLMFTVDAMKKACLPGHKQVDHHSKDTTLIHQIFGGCWRSQIKCLHCHGISDTFDPYLDIALDIQAAQSVKQALEQLVKPEELNGENAYHCGLCLQRAPASKTLTLHTSAKVLILVLKRFSDVTGNKLAKNVQYPECLDMQPYMSQQNTGPLVYVLYAVLVHAGWSCHDGHYFSYVKAQEGQWYKMDDAKVTACSITSVLSQQAYVLFYIQKSEWERHSESVSRGREPRALGAEDTDRRATQGELKRDHPCLQAPELDERLVERATQASTLDHWKFPQEQNKTKPEFNVRKVEGTLPPNVLVIHQSKYKCGMKNHHPEQQSSLLNLSSTTRTDQESVNTGTLASLQGRTRRSKGKNKHSKRALLVCQ [chain 1 E431A] |
| ~79 | chain 1 MEDDSLYLGGEWQFNHFSKLTSSRPDAAFAEIQRTSLPEKSPLSSEARVDLCDDLAPVARQLAPRKKLPLSSRRPAAVGAGLQNMGNTCYENASLQCLTYTPPLANYMLSREHSQTCQRPKCCMLCTMQAHITWALHSPGHVIQPSQALAAGFHRGKQEDAHEFLMFTVDAMKKACLPGHKQVDHHSKDTTLIHQIFGGCWRSQIKCLHCHGISDTFDPYLDIALDIQAAQSVKQALEQLVKPEELNGENAYHCGLCLQRAPASKTLTLHTSAKVLILVLKRFSDVTGNKLAKNVQYPECLDMQPYMSQQNTGPLVYVLYAVLVHAGWSCHDGHYFSYVKAQEGQWYKMDDAKVTACSITSVLSQQAYVLFYIQKSEWERHSESVSRGREPRALGAEDTDRRATQGELKRDHPCLQAPELDERLVERVTQESTLDHWKFPQEQNKTKPEFNVRKVEGTLPPNVLVIHQSKYKCGMKNHHPEQQSSLLNLSSTTRTDQESVNTGTLASLQGRTRRSKGKNKHSKRALLVCQ [chain 1 A428V] |

Variants of: B2
Test: as above

| percent of parent [%] | Variant |
| --- | --- |
| ~68 | chain 1 MEDDSLYLGGEWQFNHFSKLTSSRPDAAFAEIQRTSLPEKSPLSSEARVDLCDDLAPVARQLAPRKKLPLSSRRPAAVGAGLQNMGNTCYENASLQCLTYTPPLANYMLSREHSQTCQRPKCCMLCTMQAHITWALHSPGHVIQPSQALAAGFHRGKQEDAHEFLMFTVDAMKKACLPGHKQVDHHSKDTTLIHQIFGGCWRSQIKCLHCHGISDTFDPYLDIALDIQAAQSVKQALEQLVKPEELNGENAYHCGLCLQRAPASKTLTLHTSAKVLILVLKRFSDVTGNKLAKNVQYPECLDMQPYMSQQNTGPLVYVLYAVLVHAGWSCHDGHYFSYVKAQEGQWYKMDDAKVTACSITSVLSQQAYVLFYIQKSEWERHSESVSRGREPRALGAEDTDRRATQGELKRDHPCLQAPELDERLVERATQESTLDHWKFPQEQNKTKPEFNVRKVEGTLPPNVLVIHQSKYKCGMKNHHLEQQSSLLNLSSTTRTDQESVNTGTLASLQGRTRRSKGKNKHSKRALLVCQ [chain 1 P480L] |
| ~38 | chain 1 MEDDSLYLGGEWQFNHFSKLTSSRPDAAFAEIQRTSLPEKSPLSSEARVDLCDDLAPVARQLAPRKKLPLSSRRPAAVGAGLQNMGNTCYENASLQCLTYTPPLANYMLSREHSQTCQRPKCCMLCTMQAHITWALHSPGHVIQPSQALAAGFHRGKQEDAHEFLMFTVDAMKKACLPGHKQVDHHSKDTTLIHQIFGGCWRSQIKCLHCHGISDTFDPYLDIALDIQAAQSVKQALEQLVKPEELNGENAYHCGLCLQRAPASKTLTLHTSAKVLILVLKRFSDVTGNKLAKNVQYPECLDMQPYMSQQNTGPLVYVLYAVLVHAGWSCHDGHYFSYVKAQEGQWYKMDDAKVTACSITSVLSQQAYVLFYIQKSEWERHSESVSRGREPRALGAEDTDRRATQGELKRDHPCLQAPELDERLVERATQESTLDHWKFPQEQNKTKPEFNVRKVEGTLPPNVLVIHQSKYKCGMKNHHPEQQLSLLNLSSTTRTDQESVNTGTLASLQGRTRRSKGKNKHSKRALLVCQ [chain 1 S484L] |
| ~30 | chain 1 MEDDSLYLGGEWQFNHFSKLTSSRPDAAFAEIQRTSLPEKSPLSSEARVDLCDDLAPVARQLAPRKKLPLSSRRPAAVGAGLQNMGNTCYENASLQCLTYTPPLANYMLSREHSQTCQRPKCCMLCTMQAHITWALHSPGHVIQPSQALAAGFHRGKQEDAHEFLMFTVDAMKKACLPGHKQVDHHSKDTTLIHQIFGGCWRSQIKCLHCHGISDTFDPYLDIALDIQAAQSVKQALEQLVKPEELNGENAYHCGLCLQRAPASKTLTLHTSAKVLILVLKRFSDVTGNKLAKNVQYPECLDMQPYMSQQNTGPLVYVLYAVLVHAGWSCHDGHYFSYVKAQEGQWYKMDDAKVTACSITSVLSQQAYVLFYIQKSEWERHSESVSRGREPRALGAEDTDRRATQGELKRDHPCLQAPELDERLVERATQESTLDHWKFPQEQNKTKPEFNVRKVEGTLPPNVLVIHQSKYKCGMKNHHPERQSSLLNLSSTTRTDQESVNTGTLASLQGRTRRSKGKNKHSKRALLVCQ [chain 1 Q482R] |
